Test results as given in the RNAGym collection of RNA variant scans (doi:10.1073/pnas.2313332121).

B1: TPR t1 (parent)
chain: GACCAAUCUGCCCUCAGAGCUCGAGAACAUCUUCGGAUGCAGAGGAGGCAGGCUUCGGUGGCGCGAUAGCGCCAACGUCCUCAACCUCCAAUGCAUCCCACCACAUGAUGAUGCCUGAAGAGCCUUGGUUUUUUG

Variants of: B1
Assay: polymerase ribozyme fitness, log enrichment relative to wild type (log ratio); higher = more active; in vitro selection for triplet polymerase activity
Outline: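 Mutant libraries of each subunit of a heterodimeric triplet polymerase ribozyme were built by PCR and transcribed. Each library went through one round of in vitro selection in triplicate: annealing with biotinylated primer, partner subunit and triplets, frozen incubation at −7 °C, gel excision of extended constructs, streptavidin-bead capture and RT-PCR. Input and output libraries were Illumina-sequenced; only genotypes with ≥10 input reads and ≥1 read per output were kept. Fitness is log2(genotype enrichment/wild-type enrichment), using inverse-variance-weighted replicate averages.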

| Variant | polymerase ribozyme fitness (log ratio) |
| --- | --- |
| C70U U78A G120U G128A | -2.18 |
| G117A A121U | 1.08 |
| G60C A66G C82A | -1.84 |
| U7C C34U G61U C88A U116A | -5.7 |
| C12G A26U C114A | -6.59 |
| C28G A95U U125A | -3.63 |
| C12U C123A | 2.11 |
| U21A G39C G77A | -1.28 |
| A91G U129A | -2.34 |
| U33G G93A A100U C114U | -7.04 |
| G61C A90U | -4.47 |
| G48A C73A G127C | -1.15 |
| C22A G60C A90G C123U | -5.34 |
| C22G A68G | -5.5 |
| A91U C123G | 0.354 |
| G44C G113C | -3.05 |
| U7G C15A G58C | -0.977 |
| C3G U81C A111C G128A U133G | -4.61 |
| U81G U129A | -5.4 |
| C49G G51U | -3.2 |
| C70G U78A C86A | -3.32 |

| Variant | polymerase ribozyme fitness (log ratio) |
| --- | --- |
| C73A G122A | -0.64 |
| A83G C97A | -5.59 |
| C56A C86G C102A | -3.16 |
| U30C C49A C62A C115A | -4.4 |
| C3A G71C C79G A119G C123A | -1.16 |
| G61C A103C U109G | -5.79 |
| C12U G45C C102A | -2.34 |
| A37C C62G A83U C88U | -2.61 |
| C15A C70U C114U | -5.04 |
| G19A G61A U125G | -2.54 |
| U59C A118C | -2.95 |
| G45U U96C | -1.43 |
| U109A C123A | -6.83 |
| C28U A121C | -0.0887 |
| C11U C56G U112G | -0.0117 |
| A27C G42C G71A G120C U126A U130G | -6.83 |
| U59A C70U U96C | -1.25 |
| G63A C79G | -3.65 |
| G69A U133A | -3.31 |
| A74U C86U | -0.818 |
| G71A U81G G113A C123U | -6.93 |

| Variant | polymerase ribozyme fitness (log ratio) |
| --- | --- |
| A18C U87G C89U | -2.03 |
| G63U A83U C101G | -2.97 |
| C20U G57A U78C | -3.25 |
| G10C C11G C22G C76U | -4.64 |
| G128A U130G | -1.43 |
| C4U U7C A43U C62G | -4.93 |
| C8U G51U | -2.45 |
| G48U C72U | -1.19 |
| A5U G71U | -0.497 |
| A6U C53A G63U A100U | -3.98 |
| G10A G61C U87A C123A | -0.382 |
| U59A G117U | -2.68 |
| G45A G63A A95G C101G U130C | -3.14 |
| G61A U92A | -2.76 |
| C3U C8A C73G G120C G135C | 1.56 |
| A27U G44C G47C U112A | -3.34 |
| C12G A46G G48A C79A | -2.27 |
| G19A U78G A84U C115U A121C | -5.73 |
| A18C A29G G107U C124G U125C | -7.59 |
| G25U | -5.58 |
| G25C | -5.94 |

| Variant | polymerase ribozyme fitness (log ratio) |
| --- | --- |
| C8G C49A U92A C123U | -1.03 |
| C97U G122A | -1.08 |
| A2G C8U U87A C89U C123A | 1.08 |
| C70G A121G U131A | -0.0344 |
| U14A C22U A37U C79U A83C A84C | -5.43 |
| A43C G52U | -3.56 |
| G57U C104A U106C U125A U131C | -1.82 |
| C12A A18C U112C C124U | -0.619 |
| C15U U38G G45A G60C A74U | -4.34 |
| G60C C97G U109A | -7.09 |
| A16U A18G | -3.02 |
| A18G G44A C72G | -5.19 |
| A24U C72G | -5.64 |
| U78A U112A | 1.06 |
| U78A G93A C97A A121C | -5.11 |
| C8U A24G G36A G44U C72U | -2.98 |
| G17U A18U G39U C123A | -4.71 |
| A27G G45U U96G G120U | -3.04 |
| C72G G135C | -1.17 |
| C13U A37C C40A C73A G93A G117U | -3.4 |
